According to PMC2700083, “A covalent peptide inhibitor of RGS4 identified in a focused one-bead, one compound library screen” (BMC Pharmacology, 2009):
Bridges are numbered along the chain shown (N, C = ends).

B1: MBP-RGS4Δ51N, wild type, biotinylated (domain or fragment, UniProt P49799 52-205, looked up)
chain: SQEEVKKWAESLENLINHECGLAAFKAFLKSEYSEENIDFWISCEEYKKIKSPSKLSPKAKKIYNEFISVQATKEVNLDSCTREETSRNMLEPTITCFDEAQKKIFNLMEKDSYRRFLKSRFYLDLTNPSSCGAEKQKGAKSSADCTSLVPQCA
modifications: biotin (sites not given)
notes: RGS4 from which the amphipathic N-terminal helix has been removed (RGS4Δ51N); Rat RGS4 is surmised from the group's earlier work; His6 lies between MBP and RGS4 (MBP-His6-RGS4Δ51N) with a TEV site; also called wild type RGS4-biotin; biotin-RGS4; source: expressed, purified and labeled as described previously [5]; not shown: MBP, N-terminal, kept
B2: MBP-RGS4Δ51N C132A (domain or fragment, UniProt P49799 52-205, looked up)
chain: SQEEVKKWAESLENLINHECGLAAFKAFLKSEYSEENIDFWISCEEYKKIKSPSKLSPKAKKIYNEFISVQATKEVNLDSATREETSRNMLEPTITCFDEAQKKIFNLMEKDSYRRFLKSRFYLDLTNPSSCGAEKQKGAKSSADCTSLVPQCA
modifications: biotin (sites not given)
notes: RGS4Δ51N; source: expressed, purified and labeled as described previously [5]; not shown: MBP, N-terminal, kept
B3: MBP-RGS4Δ51N C95A (domain or fragment, UniProt P49799 52-205, looked up)
chain: SQEEVKKWAESLENLINHECGLAAFKAFLKSEYSEENIDFWISAEEYKKIKSPSKLSPKAKKIYNEFISVQATKEVNLDSCTREETSRNMLEPTITCFDEAQKKIFNLMEKDSYRRFLKSRFYLDLTNPSSCGAEKQKGAKSSADCTSLVPQCA
modifications: biotin (sites not given)
notes: as for B2
B4: MBP-RGS4Δ51N C71A (domain or fragment, UniProt P49799 52-205, looked up)
chain: SQEEVKKWAESLENLINHEAGLAAFKAFLKSEYSEENIDFWISCEEYKKIKSPSKLSPKAKKIYNEFISVQATKEVNLDSCTREETSRNMLEPTITCFDEAQKKIFNLMEKDSYRRFLKSRFYLDLTNPSSCGAEKQKGAKSSADCTSLVPQCA
modifications: biotin (sites not given)
notes: as for B2
B9: MBP-RGS4Δ51N C148A (domain or fragment)
chain: not shown
modifications: biotin (sites not given)
notes: as for B2

Columns and labels:
Conditions in all cases: both partners purified
[1] = molecular target: T1, Gαo, Alexa Fluor 532-labeled (UniProt P59215 1-354, Alexa Fluor 532 label (sites not given)); assay: FCPIA (flow cytometry protein interaction assay, Luminex beads); Gαo affinities for RGS4Δ51N wild type and mutants on beads, with AMF
T1 construct: G protein alpha subunit Gαo; Used in the presence of AMF (AlCl3, MgCl2, NaF and GDP) to put it into a transition state-like conformation; source: expressed, purified and labeled as described previously [5]
T1 sequence (P59215 whole entry): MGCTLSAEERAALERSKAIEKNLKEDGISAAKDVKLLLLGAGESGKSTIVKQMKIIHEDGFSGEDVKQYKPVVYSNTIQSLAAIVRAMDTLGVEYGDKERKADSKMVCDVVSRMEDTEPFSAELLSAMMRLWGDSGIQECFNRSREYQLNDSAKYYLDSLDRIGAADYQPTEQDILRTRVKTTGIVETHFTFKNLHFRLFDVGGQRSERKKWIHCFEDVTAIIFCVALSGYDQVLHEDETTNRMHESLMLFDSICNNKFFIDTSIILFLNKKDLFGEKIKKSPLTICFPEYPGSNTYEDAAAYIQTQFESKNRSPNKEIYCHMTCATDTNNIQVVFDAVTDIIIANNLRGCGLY

[2] = molecular target: B1; assay: FCPIA (flow cytometry protein interaction assay, Luminex beads); competition at one peptide concentration (50 μM unless the cell says otherwise); 5 nM wild type RGS4-biotin on avidin beads, 25 nM Gαo-Alexa Fluor 532, with AMF (AlCl3, MgCl2, NaF and GDP)
[3] = molecular target: T2, RGS19ΔC11 (amino acids 1–209), MBP fusion (human, UniProt P49795 1-209); assay: FCPIA (flow cytometry protein interaction assay, Luminex beads); dose response curves for 5nd with different RGS proteins on beads and labeled Gαo; curves constrained to 100% and 0%
T2 construct: RGS19, human, ΔC11, amino acids 1-209; source: expressed, purified and labeled as described previously [5]
T2 sequence (looked up): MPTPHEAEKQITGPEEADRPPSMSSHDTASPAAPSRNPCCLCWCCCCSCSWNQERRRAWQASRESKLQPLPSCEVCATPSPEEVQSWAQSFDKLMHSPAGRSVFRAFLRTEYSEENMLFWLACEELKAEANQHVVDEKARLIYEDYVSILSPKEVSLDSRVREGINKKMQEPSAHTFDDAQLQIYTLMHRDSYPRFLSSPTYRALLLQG

[4] = molecular target: T3, RGS7 RGS domain (aa: 305–453), MBP fusion (human, UniProt P49802 305-453); assay: as above
T3 construct: RGS7, human, RGS domain, aa 305-453; source: expressed, purified and labeled as described previously [5]
T3 sequence (looked up): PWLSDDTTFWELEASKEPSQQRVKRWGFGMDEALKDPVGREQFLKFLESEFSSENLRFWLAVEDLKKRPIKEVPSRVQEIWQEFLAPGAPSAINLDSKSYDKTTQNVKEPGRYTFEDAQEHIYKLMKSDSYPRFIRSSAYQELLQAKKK

[5] = molecular target: T4, RGS8 full length, MBP fusion (human, UniProt P57771 1-180, biotin (sites not given)); assay: as above
T4 construct: RGS8, human, full length; source: expressed, purified and labeled as described previously [5]
T4 sequence (looked up): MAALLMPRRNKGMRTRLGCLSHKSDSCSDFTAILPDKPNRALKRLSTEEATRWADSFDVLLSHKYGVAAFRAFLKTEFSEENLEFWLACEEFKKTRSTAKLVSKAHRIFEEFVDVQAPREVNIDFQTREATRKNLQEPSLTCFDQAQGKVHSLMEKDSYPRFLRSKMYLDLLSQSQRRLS

[6] = molecular target: B1; assay: as above
[7] = molecular target: T5, RGS16 full length, MBP fusion (human, UniProt O15492 1-202); assay: as above
T5 construct: RGS16, human, full length; source: expressed, purified and labeled as described previously [5]
T5 sequence (looked up): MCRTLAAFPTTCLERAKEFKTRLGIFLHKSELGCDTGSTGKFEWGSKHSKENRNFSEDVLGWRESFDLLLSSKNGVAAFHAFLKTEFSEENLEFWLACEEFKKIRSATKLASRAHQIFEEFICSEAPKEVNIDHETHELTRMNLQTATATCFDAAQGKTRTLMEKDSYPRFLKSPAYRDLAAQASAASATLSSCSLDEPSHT

MBP-RGS4Δ51N C95A = molecular target: B3; assay: FCPIA (flow cytometry protein interaction assay, Luminex beads); dose curves of 5nd on RGS4 cysteine mutants (5 nM, or 20 nM for the mutants with no Cys in the domain or the C-terminus) and labeled Gαo; curves constrained to 100% and 0%
MBP-RGS4Δ51N C71A = molecular target: B4; assay: as above
MBP-RGS4Δ51N C132A = molecular target: B2; assay: as above
[8] = molecular target: B1; assay: as above
MBP-RGS4Δ51N C148A = molecular target: B9; assay: as above

## B1
[1]
  Kd: 0.0116 µM

## B2
[1]
  Kd: 0.0079 µM

## B3
[1]
  Kd: 0.00817 µM

## B4
[1]
  Kd: 0.0122 µM

B5: Peptide 5ad (Ac-YWCKGLCK-NH2, S-S) (peptide)
peptide: Ac-YWCKGLCK-NH2
modifications: disulfide 3-7 (inferred)
notes: hit peptide from the focused OBOC library screen; source: synthetic peptide
[2]
  % inhibition of RGS4-Gαo: 37%

B6: Peptide 6ad (Ac-KHCYGFCY-NH2, S-S) (peptide)
peptide: Ac-KHCYGFCY-NH2
modifications: disulfide 3-7 (inferred)
notes: as for B5
[2]
  % inhibition of RGS4-Gαo: 27%

B7: Peptide 2nd (GTCFGTCW-NH2, S-S) (peptide)
peptide: H-GTCFGTCW-NH2
modifications: disulfide 3-7 (inferred)
notes: hit peptide from the focused OBOC library screen; also called hit 2; source: synthetic peptide
[2]
  % inhibition of RGS4-Gαo: 19%

B8: Peptide 6nd (KHCYGFCY-NH2, S-S) (peptide)
peptide: H-KHCYGFCY-NH2
modifications: disulfide 3-7 (inferred)
notes: hit peptide from the focused OBOC library screen; also called hit 6; peptide 14 in Roof et al 2008; source: synthetic peptide
[2]
  % inhibition of RGS4-Gαo: 23%

## B9
[1]
  Kd: 0.00684 µM

B10: Peptide 5nd (Tyr-Trp-c[Cys-Lys-Gly-Leu-Cys]-Lys-NH2, S-S) (peptide)
peptide: H-YWCKGLCK-NH2
modifications: disulfide 3-7
SMILES: CC(C)C[C@@H]1NC(=O)CNC(=O)[C@H](CCCCN)NC(=O)[C@@H](NC(=O)[C@H](Cc2c[nH]c3ccccc23)NC(=O)[C@@H](N)Cc2ccc(O)cc2)CSSC[C@@H](C(=O)N[C@@H](CCCCN)C(N)=O)NC1=O
notes: hit peptide from the focused OBOC library screen; also called peptide 7nd in Roof et al, 2008; hit 5; source: synthetic peptide
[3]
  IC50: ~145 µM
  logIC50: ~-3.84 log M
[4]
  IC50: ~175 µM
  logIC50: ~-3.76 log M
[5]
  IC50: 43 µM
  logIC50: -4.36 log M
[6]
  IC50: 28 µM
  logIC50: -4.56 log M
[7]
  IC50: 66 µM
  logIC50: -4.18 log M
[2]
  % inhibition of RGS4-Gαo: 80%
MBP-RGS4Δ51N C95A
  logIC50: -4.71 log M
MBP-RGS4Δ51N C71A
  logIC50: -4.34 log M
MBP-RGS4Δ51N C132A
  logIC50: -3.86 log M
[8]
  logIC50: -4.36 log M
MBP-RGS4Δ51N C148A
  logIC50: -4.27 log M
